This data set deals with the molecule itself. The data set can be described thus: crystal structure.

B1: mCldn3cryst P134G (domain or fragment)
chain: MSMGLEITGTSLAVLGWLCTIVCCALPMWRVSAFIGSSIITAQITWEGLWMNCVVQSTGQMQCKMYDSLLALPQDLQAARALIVVSILLAAFGLLVALVGAQATNAVQDETAKAKITIVAGVLFLLAALLTLVGVSWSANTIIRDFYNPLVPEAQKREMGAGLYVGWAAAALQLLGGALLAA
notes: also called P134G mutant; source: Sf9 insect cells (baculovirus), purified (as mCldn3cryst)
As to B1, the binding result is recorded as “binds”.

B2: mCldn3cryst P134A (domain or fragment)
chain: MSMGLEITGTSLAVLGWLCTIVCCALPMWRVSAFIGSSIITAQITWEGLWMNCVVQSTGQMQCKMYDSLLALPQDLQAARALIVVSILLAAFGLLVALVGAQATNAVQDETAKAKITIVAGVLFLLAALLTLVAVSWSANTIIRDFYNPLVPEAQKREMGAGLYVGWAAAALQLLGGALLAA
notes: also called P134A mutant; source: Sf9 insect cells (baculovirus), purified (as mCldn3cryst)
In the case of B2, the binding result was “binds”.
